Assay results as given in patent publication US20120065367A1, “Radioactively Labeled Substance” (priority 2009, published 2012).
Blank lines part the entries; values can stand above or below the substance they belong to.

Assays:
[1] = system: Human glioma cell line, U87MG cells; assay: Accumulation of radiolabeled drug in tumor and organ of tumor-bearing mice; format: in vivo, Balb/c-nu/nu mice; details: for Ratio of accumulation in tumor to that in tissue: Tumor/Blood / Ratio of accumulation in tumor to that in tissue: Tumor/Intestine / Ratio of accumulation in tumor to that in tissue: Tumor/Liver: 1 hour after administration; for Accumulated amount in tissue: Blood / Accumulated amount in tissue: Intestine / Accumulated amount in tissue: Kidney / Accumulated amount in tissue: Liver / Accumulated amount in tissue: Lung / Accumulated amount in tissue: Stomach / Accumulated amount in tissue: Tumor: 1 hour after tail vein administration
Procedure: Human glioma cell line, U87MG cells at 5×10^6 cells/mouse were administered subcutaneously in the left femur of Balb/c-nu/nu mice at 4 weeks of age. The mice bearing the tumor of 0.5 g in size were used for a body distribution experiment.
A ^99mTc-GH solution with [GH]=4.0 mg/mL was obtained by adding 750 μL (1.58 μCi) of a solution of Na[^99mTcO4] in saline eluted from a ^99Mo/^99mTc generator to a lyophilized GH kit (3.0 mg) including α-D-glucoheptonic acid and stannous chloride to perform a reaction at room temperature for 20 minutes. Further, a 2 mM ligand solution was separately prepared by dissolving D-Pen-Hx-cRGDfK (0.8 mg, […]) in 471 μL of 0.1 M Tris hydrochloride buffer (pH 9.0) purged with nitrogen. 140 μL of the ^99mTc-GH solution was added to 140 μL of the ligand solution, they were sufficiently mixed, and then subjected to a reaction at 40° C. for 40 minutes. The reaction solution was diluted to 40-fold with saline so that [Free ligand]=0.025 mM to use as the unpurified sample to be administered.
A ^99mTc-GH solution with [GH]=4.0 mg/mL was obtained by adding 500 μL (970 μCi) of a solution of Na[^99mTcO4] in saline eluted from a ^99Mo/^99mTc generator to a lyophilized GH kit (2.0 mg) including α-D-glucoheptonic acid and stannous chloride to perform a reaction at room temperature for 20 minutes. Further, a 2 mM ligand solution was separately prepared by dissolving TMEC-[N-hexanoate-c(Arg-Gly-Asp-D-Phe-Lys)]2 (hereinafter, sometimes abbreviated as TMEC-RGD2) (0.7 mg, 0.406 μmol) in 200 μL of 0.1 M acetate buffer (pH 3.5) purged with nitrogen. 200 μL of the ^99mTc-GH solution was added to 200 μL of the ligand solution, they were sufficiently mixed, and then subjected to a reaction at 80° C. for one hour. A half amount of the reaction solution (200 μL) was applied to RP-HPLC (mobile phase: A=10 mM phosphate buffer (pH 6.0), B=MeOH; gradient system: 0 to 18 minutes: B=0 to 60%, 18 to 26 minutes: B=60 to 100%, 26 to 31 minutes: B=100%), a fraction eluted at 24 minutes was collected, the organic solvent was distilled off under reduced pressure, and then the residue was diluted with 10% ethanol/saline to use as the purified sample. Further, the other half amount of the reaction solution (200 μL) was diluted to 40-fold with saline so that [Free ligand]=0.025 mM to use as the unpurified sample to be administered.
100 μL of the unpurified ^99mTC-(D-Pen-Hx-cRDGfK)2 sample (about 1.1 μCi) was administered to the tail veins of tumor-bearing Balb/c-nu/nu male mice at 10 weeks of age. There were 5 mice in one group. The mice were sacrificed by beheading 1 hour after the administration. Blood, organs of interest, and the tumor were removed, and the weight of and the radioactivity in each organ were measured.
100 μL of the purified or unpurified ^99mTc-TMEC-RGD2 sample (about 0.5 μCi) was administered to the tail veins of tumor-bearing Balb/c-nu/nu male mice at 10 weeks of age. There were 4 mice in one group. The mice were sacrificed by beheading 1 hour after the administration. Blood, organs of interest, and the tumor were removed, and the weight of and the radioactivity in each organ were measured.

[2] = design: species or system ddY-strain male mice; details: mouse
Procedure: 100 μL (about 1 μCi) of unpurified ^99mTc-(D-Pen-N-hexanoate-cRGDfK)2 or ^99mTc-(D-Pen-N-hexanoate-cRGDfK)2 purified by RP-HPLC was administered to the tail veins of ddY-strain male mice at 6 weeks of age (three mice for each group). The mice were sacrificed 10 minutes, 1, 3, and 6 hours after the administration, and blood samples were collected. The mice were anatomized, and the weight and radioactivity of each organ were measured. The radioactivity in urine and feces excreted by 6 hours after the administration was also measured.

[3] = Stability of 99mTc complex in buffer; format: physicochemical; details: 0.01 M phosphate buffer (pH 6.0), room temperature, after 1, 3, 6, and 24 hours
Procedure: 11. Examination of Stability
Each ^99mTc-labeled compound was purified by RP-HPLC (method 1 or method 2), and then the solvent was distilled off under reduced pressure. The residue was redissolved in 400 μL of 0.01 M phosphate buffer (pH 6.0). This solution was stored at room temperature, and after 1, 3, 6, and 24 hours, its radiochemical purity was analyzed by CAE or RP-HPLC.

[4] = administered after removing the excessive ligand by HPLC
[5] = administered without removing the excessive ligand

Substance: ^99mTc-TMEC-[N-hexanoate-c(Arg-Gly-Asp-D-Phe-Lys)]2 [^99mTc-TMEC-RGD2]
Ratio of accumulation in tumor to that in tissue: Tumor/Blood [1, 4]: 4.91 (1.07) | Ratio of accumulation in tumor to that in tissue: Tumor/Intestine [1, 4]: 0.54 (0.10) | Ratio of accumulation in tumor to that in tissue: Tumor/Liver [1, 4]: 0.65 (0.14) | Accumulated amount in tissue: Blood [1, 4]: 0.72 (0.02) % injected dose/gram tissue | Accumulated amount in tissue: Intestine [1, 4]: 6.70 (0.75) % injected dose/gram tissue | Accumulated amount in tissue: Kidney [1, 4]: 16.68 (3.87) % injected dose/gram tissue | Accumulated amount in tissue: Liver [1, 4]: 5.47 (0.41) % injected dose/gram tissue | Accumulated amount in tissue: Lung [1, 4]: 2.33 (0.31) % injected dose/gram tissue | Accumulated amount in tissue: Stomach [1, 4]: 1.20 (0.16) % injected dose | Accumulated amount in tissue: Tumor [1, 4]: increased | Accumulated amount in tissue: Tumor ([1]; administered after removing the excessive ligand by HPLC, listed as 99mTC-TMEC-RGD2): 3.54 (0.72) % injected dose/gram tissue | Ratio of accumulation in tumor to that in tissue: Tumor/Blood [1, 5]: 3.41 (1.55) | Ratio of accumulation in tumor to that in tissue: Tumor/Intestine [1, 5]: 0.37 (0.13) | Ratio of accumulation in tumor to that in tissue: Tumor/Liver [1, 5]: 0.67 (0.31) | Accumulated amount in tissue: Blood [1, 5]: 0.86 (0.33) % injected dose/gram tissue | Accumulated amount in tissue: Intestine [1, 5]: 7.42 (1.95) % injected dose/gram tissue | Accumulated amount in tissue: Kidney [1, 5]: 26.82 (8.71) % injected dose/gram tissue | Accumulated amount in tissue: Liver [1, 5]: 4.57 (2.10) % injected dose/gram tissue | Accumulated amount in tissue: Lung [1, 5]: 2.38 (0.57) % injected dose/gram tissue | Accumulated amount in tissue: Stomach [1, 5]: 0.79 (0.30) % injected dose

Substance: ^99mTc-(D-Pen-N-hexanoate-cRGDfK)2 [^99mTc-(Pen-RGD)2]
Ratio accumulated in the tumor to that in each tissue, compared with purified 99mTc-TMEC-RGD2 ([1]; mouse, in vivo): equivalence to or higher than | Stability in vivo [2]: stable in vivo

Stability in a buffer (radiochemical purity) [3]: higher stability
Substance: ^99mTc-(D-penicillamine)2 [^99mTc-(D-Pen)2]
